Experimental data published in PMC9181005, “Insights to the Structural Basis for the Stereospecificity of the Escherichia coli Phytase, AppA” (International Journal of Molecular Sciences, 2022).

T1: AppA (Escherichia coli periplasmic phytase) (Escherichia coli, UniProt P07102)
T1 construct: mature enzyme lacking the periplasmic signal peptide (residues 1–22)
T1 sequence (P07102 23-432): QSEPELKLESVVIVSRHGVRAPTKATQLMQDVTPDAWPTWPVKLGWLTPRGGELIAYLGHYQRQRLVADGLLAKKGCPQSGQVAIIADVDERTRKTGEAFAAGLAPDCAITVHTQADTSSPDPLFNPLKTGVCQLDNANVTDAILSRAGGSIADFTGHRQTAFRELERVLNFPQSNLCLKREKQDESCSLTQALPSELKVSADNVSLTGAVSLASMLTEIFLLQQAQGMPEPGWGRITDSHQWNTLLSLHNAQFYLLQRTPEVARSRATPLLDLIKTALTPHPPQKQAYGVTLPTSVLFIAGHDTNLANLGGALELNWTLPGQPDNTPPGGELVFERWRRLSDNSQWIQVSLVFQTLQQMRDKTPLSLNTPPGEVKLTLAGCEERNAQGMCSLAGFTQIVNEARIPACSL


Columns and labels:
[1] = biological target: T1, AppA (Escherichia coli periplasmic phytase); assay: X-ray crystal structure at […] Å (soak at pH […]); phytase inhibition assay at pH […]; type: biochemical
[2] = substrate: O=P(O)(O)O[C@H]1[C@H](OP(=O)(O)O)[C@@H](OP(=O)(O)O)[C@H](OP(=O)(O)O)[C@@H](OP(=O)(O)O)[C@H]1OP(=O)(O)O; assay: phosphate release kinetics (Km), HPLC of products; type: biochemical, Escherichia coli; settings: active site
[3] = preferential hydrolysis of the 1D-6-phosphate
[4] = predominantly 1D-1/3-phytase activity

Molecule	Km [2] [µM]	kcat [2] [s⁻¹]	kcat/Km [2] [M⁻¹ s⁻¹]	also measured
O=S(=O)(O)O[C@H]1[C@H](OS(=O)(=O)O)[C@@H](OS(=O)(=O)O)[C@H](OS(=O)(=O)O)[C@@H](OS(=O)(=O)O)[C@H]1OS(=O)(=O)O [InsS6]				IC50 [1]: ~10 µM
AppA (Escherichia coli periplasmic phytase) (Escherichia coli K-12) (protein, mature enzyme lacking the periplasmic signal peptide (residues 1–22)) QSEPELKLESVVIVSRHGVRAPTKATQLMQDVTPDAWPTWPVKLGWLTPRGGELIAYLGHYQRQRLVADGLLAKKGCPQSGQVAIIADVDERTRKTGEAFAAGLAPDCAITVHTQADTSSPDPLFNPLKTGVCQLDNANVTDAILSRAGGSIADFTGHRQTAFRELERVLNFPQSNLCLKREKQDESCSLTQALPSELKVSADNVSLTGAVSLASMLTEIFLLQQAQGMPEPGWGRITDSHQWNTLLSLHNAQFYLLQRTPEVARSRATPLLDLIKTALTPHPPQKQAYGVTLPTSVLFIAGHDTNLANLGGALELNWTLPGQPDNTPPGGELVFERWRRLSDNSQWIQVSLVFQTLQQMRDKTPLSLNTPPGEVKLTLAGCEERNAQGMCSLAGFTQIVNEARIPACSL				Km [2, 3]: 161 µM; kcat [2, 3]: 10200 s⁻¹; kcat/Km [2, 3]: 6.4e+07 M⁻¹ s⁻¹
AppA-HDE (Escherichia coli K-12; T327E) (protein, mature enzyme lacking the periplasmic signal peptide (residues 1–22)) QSEPELKLESVVIVSRHGVRAPTKATQLMQDVTPDAWPTWPVKLGWLTPRGGELIAYLGHYQRQRLVADGLLAKKGCPQSGQVAIIADVDERTRKTGEAFAAGLAPDCAITVHTQADTSSPDPLFNPLKTGVCQLDNANVTDAILSRAGGSIADFTGHRQTAFRELERVLNFPQSNLCLKREKQDESCSLTQALPSELKVSADNVSLTGAVSLASMLTEIFLLQQAQGMPEPGWGRITDSHQWNTLLSLHNAQFYLLQRTPEVARSRATPLLDLIKTALTPHPPQKQAYGVTLPTSVLFIAGHDENLANLGGALELNWTLPGQPDNTPPGGELVFERWRRLSDNSQWIQVSLVFQTLQQMRDKTPLSLNTPPGEVKLTLAGCEERNAQGMCSLAGFTQIVNEARIPACSL	92	1690	1.8e+07	
AppA-HAE (Escherichia coli K-12; D326A/T327E) (protein, mature enzyme lacking the periplasmic signal peptide (residues 1–22)) QSEPELKLESVVIVSRHGVRAPTKATQLMQDVTPDAWPTWPVKLGWLTPRGGELIAYLGHYQRQRLVADGLLAKKGCPQSGQVAIIADVDERTRKTGEAFAAGLAPDCAITVHTQADTSSPDPLFNPLKTGVCQLDNANVTDAILSRAGGSIADFTGHRQTAFRELERVLNFPQSNLCLKREKQDESCSLTQALPSELKVSADNVSLTGAVSLASMLTEIFLLQQAQGMPEPGWGRITDSHQWNTLLSLHNAQFYLLQRTPEVARSRATPLLDLIKTALTPHPPQKQAYGVTLPTSVLFIAGHAENLANLGGALELNWTLPGQPDNTPPGGELVFERWRRLSDNSQWIQVSLVFQTLQQMRDKTPLSLNTPPGEVKLTLAGCEERNAQGMCSLAGFTQIVNEARIPACSL	33	12.5	380000	
AppA-HAT (Escherichia coli K-12; D326A) (protein, mature enzyme lacking the periplasmic signal peptide (residues 1–22)) QSEPELKLESVVIVSRHGVRAPTKATQLMQDVTPDAWPTWPVKLGWLTPRGGELIAYLGHYQRQRLVADGLLAKKGCPQSGQVAIIADVDERTRKTGEAFAAGLAPDCAITVHTQADTSSPDPLFNPLKTGVCQLDNANVTDAILSRAGGSIADFTGHRQTAFRELERVLNFPQSNLCLKREKQDESCSLTQALPSELKVSADNVSLTGAVSLASMLTEIFLLQQAQGMPEPGWGRITDSHQWNTLLSLHNAQFYLLQRTPEVARSRATPLLDLIKTALTPHPPQKQAYGVTLPTSVLFIAGHATNLANLGGALELNWTLPGQPDNTPPGGELVFERWRRLSDNSQWIQVSLVFQTLQQMRDKTPLSLNTPPGEVKLTLAGCEERNAQGMCSLAGFTQIVNEARIPACSL				Km [2, 4]: 32 µM; kcat [2, 4]: 10.5 s⁻¹; kcat/Km [2, 4]: 320000 M⁻¹ s⁻¹
AppA-HET (Escherichia coli K-12; D326E) (protein, mature enzyme lacking the periplasmic signal peptide (residues 1–22)) QSEPELKLESVVIVSRHGVRAPTKATQLMQDVTPDAWPTWPVKLGWLTPRGGELIAYLGHYQRQRLVADGLLAKKGCPQSGQVAIIADVDERTRKTGEAFAAGLAPDCAITVHTQADTSSPDPLFNPLKTGVCQLDNANVTDAILSRAGGSIADFTGHRQTAFRELERVLNFPQSNLCLKREKQDESCSLTQALPSELKVSADNVSLTGAVSLASMLTEIFLLQQAQGMPEPGWGRITDSHQWNTLLSLHNAQFYLLQRTPEVARSRATPLLDLIKTALTPHPPQKQAYGVTLPTSVLFIAGHETNLANLGGALELNWTLPGQPDNTPPGGELVFERWRRLSDNSQWIQVSLVFQTLQQMRDKTPLSLNTPPGEVKLTLAGCEERNAQGMCSLAGFTQIVNEARIPACSL	171	128	700000	
